Experimental data from US20240401101A1, “A LIVE CELL ASSAY TO DETERMINE PERMEABILITY OF TEST MOLECULES TO AND/OR WITHIN THE PEPTIDOGLYCAN SCAFFOLD OF BACTERIA CELLS” (priority 2021, published 2024).

Tested on: S. aureus (ATCC 25923)
Test: Enzymatic degradation of fluorescently labeled whole cells (mutanolysin / proteinase K), incl. BONCAT control
Assay type: cell-based, Staphylococcus aureus

B1: proteinase K: promiscuous protease (protein, UniProt P06873 106-384, looked up)
Proteinase K: AAQTNAPWGLARISSTSPGTSTYYYDESAGQGSCVYVIDTGIEASHPEFEGRAQMVKTYYYSSRDGNGHGTHCAGTVGSRTYGVAKKTQLFGVKVLDDNGSGQYSTIIAGMDFVASDKNNRNCPKGVVASLSLGGGYSSSVNSAAARLQSSGVMVAVAAGNNNADARNYSPASEPSVCTVGASDRYDRRSSFSNYGSVLDIFGPGTSILSTWIGGSTRSISGTSMATPHVAGLAAYLMTLGKTTAASACRYIADTANKGDLSNIPFGTVNLLAYNNYQA
- cellular fluorescence of D-cystine/Mal-Fl labeled cells during enzyme treatment (50 μg/mL mutanolysin or 500 μg/mL proteinase K, mutanolysin read at 120 minutes): remained mostly unchanged
- cellular fluorescence of L-azidohomoalanine/DBCO-Fl labeled cells after enzyme treatment (BONCAT, 1 mM AHA, 25 μM DBCO-Fl): significant decrease
